{"source": "paper PMC6553876", "about": "(PLoS Pathogens, 2019)", "target": "T1, DEN4-80E (Dengue virus type 4, strain H241 …, UniProt Q58HT7)", "T1 construct": "Envelope (E) protein of dengue virus serotype 4, strain H241, truncated form: 80% of the N-terminal of the E protein; also called DEN-80E of DENV4; truncated envelope protein of DENV4; source: recombinant E protein, component of the tetravalent dengue subunit vaccine V180 (Merck and Co. Inc.)", "T1 sequence (Q58HT7 whole entry, looked up, the tested form may be a part)": "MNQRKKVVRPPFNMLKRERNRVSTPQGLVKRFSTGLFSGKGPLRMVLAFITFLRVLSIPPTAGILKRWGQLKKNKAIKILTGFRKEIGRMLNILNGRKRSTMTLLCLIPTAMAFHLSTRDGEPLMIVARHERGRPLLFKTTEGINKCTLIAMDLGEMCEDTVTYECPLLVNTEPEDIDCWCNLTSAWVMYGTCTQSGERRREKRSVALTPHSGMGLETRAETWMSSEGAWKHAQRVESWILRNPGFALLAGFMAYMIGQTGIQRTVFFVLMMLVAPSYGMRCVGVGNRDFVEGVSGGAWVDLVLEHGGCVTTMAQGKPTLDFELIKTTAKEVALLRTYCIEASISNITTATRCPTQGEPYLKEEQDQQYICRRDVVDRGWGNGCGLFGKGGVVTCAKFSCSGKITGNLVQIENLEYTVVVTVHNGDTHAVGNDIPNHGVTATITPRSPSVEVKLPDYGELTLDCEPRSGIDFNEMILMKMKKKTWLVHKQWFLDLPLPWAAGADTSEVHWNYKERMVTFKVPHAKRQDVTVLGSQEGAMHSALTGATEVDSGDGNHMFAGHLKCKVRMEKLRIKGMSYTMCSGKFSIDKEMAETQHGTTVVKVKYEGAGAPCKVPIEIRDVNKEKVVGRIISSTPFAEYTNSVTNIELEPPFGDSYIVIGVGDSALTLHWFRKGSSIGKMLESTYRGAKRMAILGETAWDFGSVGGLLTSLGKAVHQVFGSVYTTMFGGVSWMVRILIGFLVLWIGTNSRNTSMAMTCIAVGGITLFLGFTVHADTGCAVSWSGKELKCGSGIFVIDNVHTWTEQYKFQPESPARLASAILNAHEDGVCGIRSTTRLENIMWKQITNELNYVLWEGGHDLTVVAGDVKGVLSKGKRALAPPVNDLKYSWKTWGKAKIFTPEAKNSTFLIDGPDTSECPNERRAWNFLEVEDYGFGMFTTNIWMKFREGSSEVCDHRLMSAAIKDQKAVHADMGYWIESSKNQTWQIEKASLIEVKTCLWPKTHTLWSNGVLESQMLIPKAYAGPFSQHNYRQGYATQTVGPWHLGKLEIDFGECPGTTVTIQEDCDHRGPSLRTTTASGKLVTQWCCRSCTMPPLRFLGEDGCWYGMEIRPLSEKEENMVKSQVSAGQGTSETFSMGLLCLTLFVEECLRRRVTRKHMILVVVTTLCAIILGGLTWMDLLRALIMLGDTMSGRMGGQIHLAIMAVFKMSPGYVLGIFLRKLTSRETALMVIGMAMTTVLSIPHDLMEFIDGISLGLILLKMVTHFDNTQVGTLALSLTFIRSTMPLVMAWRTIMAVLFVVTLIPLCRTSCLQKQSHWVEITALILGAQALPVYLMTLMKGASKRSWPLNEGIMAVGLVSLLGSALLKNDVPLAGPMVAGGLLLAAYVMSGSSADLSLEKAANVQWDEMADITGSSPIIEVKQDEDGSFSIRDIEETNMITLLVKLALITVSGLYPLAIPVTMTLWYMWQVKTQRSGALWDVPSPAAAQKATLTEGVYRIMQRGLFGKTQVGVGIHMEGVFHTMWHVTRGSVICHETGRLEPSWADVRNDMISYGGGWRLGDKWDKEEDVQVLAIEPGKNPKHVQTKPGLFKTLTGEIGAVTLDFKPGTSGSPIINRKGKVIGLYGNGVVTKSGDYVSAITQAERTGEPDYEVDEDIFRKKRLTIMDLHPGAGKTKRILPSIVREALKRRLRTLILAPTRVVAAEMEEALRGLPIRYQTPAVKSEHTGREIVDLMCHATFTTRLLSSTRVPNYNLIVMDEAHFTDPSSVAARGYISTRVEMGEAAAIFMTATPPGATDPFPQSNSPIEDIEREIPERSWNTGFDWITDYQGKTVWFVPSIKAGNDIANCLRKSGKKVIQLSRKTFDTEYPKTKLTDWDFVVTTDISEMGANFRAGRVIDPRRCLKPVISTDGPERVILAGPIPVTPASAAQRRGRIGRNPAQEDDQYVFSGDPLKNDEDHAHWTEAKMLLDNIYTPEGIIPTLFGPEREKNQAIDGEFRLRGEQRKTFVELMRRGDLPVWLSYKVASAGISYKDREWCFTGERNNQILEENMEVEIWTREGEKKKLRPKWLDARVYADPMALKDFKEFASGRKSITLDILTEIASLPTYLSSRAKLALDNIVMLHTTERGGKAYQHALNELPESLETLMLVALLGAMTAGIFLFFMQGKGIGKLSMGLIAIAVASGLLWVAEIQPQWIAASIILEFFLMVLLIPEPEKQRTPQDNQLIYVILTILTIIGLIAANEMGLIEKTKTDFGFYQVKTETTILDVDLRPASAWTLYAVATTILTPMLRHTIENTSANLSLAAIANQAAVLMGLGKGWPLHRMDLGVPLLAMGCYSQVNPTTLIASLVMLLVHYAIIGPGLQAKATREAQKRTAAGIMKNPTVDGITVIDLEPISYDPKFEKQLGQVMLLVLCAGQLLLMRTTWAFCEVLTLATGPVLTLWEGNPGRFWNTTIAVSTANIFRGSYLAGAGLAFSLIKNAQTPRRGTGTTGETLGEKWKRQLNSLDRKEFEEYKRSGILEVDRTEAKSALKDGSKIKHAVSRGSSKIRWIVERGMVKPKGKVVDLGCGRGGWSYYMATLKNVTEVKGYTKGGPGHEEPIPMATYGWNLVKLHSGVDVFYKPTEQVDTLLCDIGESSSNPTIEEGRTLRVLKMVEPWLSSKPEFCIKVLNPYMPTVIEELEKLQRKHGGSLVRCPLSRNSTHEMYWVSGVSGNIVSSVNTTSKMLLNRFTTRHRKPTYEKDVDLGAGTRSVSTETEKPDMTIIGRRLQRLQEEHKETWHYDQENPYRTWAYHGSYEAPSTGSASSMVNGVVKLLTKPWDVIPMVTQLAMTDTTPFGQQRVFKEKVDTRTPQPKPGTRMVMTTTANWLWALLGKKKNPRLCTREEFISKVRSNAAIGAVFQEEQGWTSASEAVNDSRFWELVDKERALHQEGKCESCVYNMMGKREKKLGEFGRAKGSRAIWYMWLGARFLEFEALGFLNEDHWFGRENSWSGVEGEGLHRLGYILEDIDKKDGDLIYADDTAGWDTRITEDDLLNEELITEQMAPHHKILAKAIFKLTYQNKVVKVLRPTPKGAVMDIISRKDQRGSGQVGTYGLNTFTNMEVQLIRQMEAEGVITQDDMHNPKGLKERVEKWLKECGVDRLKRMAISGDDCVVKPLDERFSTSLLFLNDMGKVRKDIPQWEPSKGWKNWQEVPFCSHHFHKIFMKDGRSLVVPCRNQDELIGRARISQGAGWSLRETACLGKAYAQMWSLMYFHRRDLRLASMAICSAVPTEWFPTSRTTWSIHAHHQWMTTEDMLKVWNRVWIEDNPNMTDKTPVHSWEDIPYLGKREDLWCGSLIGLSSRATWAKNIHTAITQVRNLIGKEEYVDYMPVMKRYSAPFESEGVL", "assay": "BLI; Octet RED96 epitope binning: first mAb (30 ug/ml) captured on protein A sensor for 600 s, blocking antibody (200 ug/ml) 300 s, DEN4-80E loaded at 30 ug/ml for 300 s, then second mAb (d462, 5H2, d559, d182)", "conditions": "both partners purified"}
{"binder": "chimpanzee antibody 5H2 (antibody, V domains shown, also called mAb 5H2) VH: EVQLLESGPGLVKPSETLSLTCTVSGGSISDFYWSWLRQSPGKGLEWIGYAHSRVSAYYNPSLKSRVTISVDTSKNQISLRLSAVTAADTALYYCARQGTGTTGVSEDSFDLWGQGTKVIVSL VL: ELQMTQSPSSLSASVGDRVTITCRASQDISIRLNWYQQKPGKAPKLLIYDASTLESGVPSRFSGSGSGTDFTLTISSLQPEDFATYYCQQFNSYPLTFGGGTKVEIK", "values": [{"measurement": "binding result", "value": "binds"}]}
